Values of other authors in article doi:10.1101/2024.07.26.605324.
Where “and” joins values, the source holds several entries; their conditions need not be identical. Equal values may be shown once.

Biological target: His27 (position 27, …)
Assay: NMR
Conditions: 243–263 K; membrane-bound tetramer, wild type with both His19 and His27 tetrads

Protein: MLEPFQILSICSFILSALHFIAWTIGHLNQIKR [Influenza B virus matrix protein 2 (BM2) proton channel (Influenza B virus)]
- pKa: 5.9±0.1 and 5.8±0.1
